Laboratory results published in PMC6601565.
pKd: −log10 of the molar value.

What was measured:
[1] = target: human CD16A-158V ECD fused to Avi-tagged and biotinylated monomeric Fc (silenced) (human); experiment: SPR
[2] = target: human CD16A-158F ECD fused to Avi-tagged and biotinylated monomeric Fc (silenced) (human) (UniProt P08637); experiment: SPR
Sequence of UniProt P08637 (P08637 17-208): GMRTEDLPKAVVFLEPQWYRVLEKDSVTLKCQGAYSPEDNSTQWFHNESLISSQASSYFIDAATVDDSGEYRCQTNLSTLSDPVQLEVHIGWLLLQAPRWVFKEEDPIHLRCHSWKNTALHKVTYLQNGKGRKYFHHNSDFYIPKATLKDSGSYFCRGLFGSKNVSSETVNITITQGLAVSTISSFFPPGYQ

Row | Substance | pKd [1] | koff [1] | kon [1] | pKd [2] | koff [2] | kon [2]
1 | human IgG1 with enhanced Fc (S239D/I332E) (antibody) | 7.87 | 0.00639 s⁻¹ | 474000 M⁻¹ s⁻¹ | – | – | –
2 | human IgG1 with silenced Fc (L234F/L235E/D265A) (antibody) | – | – | – | 4.46 | 0.71 s⁻¹ | 20400 M⁻¹ s⁻¹
3 | human IgG1 with wildtype Fc (antibody) | 6.37 | 0.00995 s⁻¹ | 23500 M⁻¹ s⁻¹ | 5.57 | 0.0675 s⁻¹ | 24800 M⁻¹ s⁻¹
